# Test: soluble on expression in E. coli; label from the status in PepcDB or PDB records
row,Sequence,soluble on expression in E. coli
1,IFSEINIDPTKRVLLYAPTWKTNSSDDDIFPINEQLLKHYNVIYKGHVESKNDLVPEGVIIPPNNIETQDLIIISDVVLTDYSSIIFDALTVDKKGCLYTPNHSQYVEERGVYQDVMDTLKPIWYTDAELLINDLITDSIPQLNNKYTNKNNQSFEYISKLISN,not soluble
2,MTFYDHLHASPYTWERVGNLLADATAADVERSLAYRRRTIQDFITLISPAAIPYLEQMARQAHALTVERFGHTMQLYIPLYLSNICSNACVYCGFSRSNKIHRRRLTAEEVDREAEAILRLGYKHLLLVSGESEKATPASYYEKMTRRLRPLFSQLSLEVQPLTTEEYARLHEAGIGAVYVYQETYNEQAYPTYHPAGRKADYRYRLETPDRIGRANMQKIGIGALLGLENWRVDSVFTALHLRYLEQTYWKSKFSISLPRLRPATGGWEPKDPIDDVGMVQLITAFRLLDKDVEISLSTRESREFRDHVMPLGITSVSAGSKTEPGGYAEENADLEQFAINDARSPAEMAADLRRLGYEPVWKDWDAFM,not soluble
3,MGSDKIHHHHHHKITQDDLKQLDGNLTPLGAERAANKDGTIPAWTGKWLGAPTGVAYKAGERYQDPYADEKPLYVITAQNMAQYDKQLTDGLKALFKKYPETFKMPIYATHRDFRYDDGTYKAIRTYAPQIEMLGEGNGVKNSPPTLPYPIPKTGLELLWNLRFASAIESERAVYDQAVVYADGKVAWGKVKYEIWSPKDGQHFDAKAPMNARAFYRMYTELPLRDRGSIITGYTVYDSPEPDSNRAWSYNPGTRRVRQAPEYGYDQPFGPGGFRTVDDDHFFNGSPERYDWKIVGKRELYVPYNNYRMSSPSIKYQDLLTKGHADPSNMRYELHRVWVLEATLKQGFRHQYAKRIIYIDEDSWYGVLADNYDSRGQLWRTNIQANVYAYDAKRFYPTAVFFHDLISGAYLADRLTNEGQPPRLNSEPKYVEAYFSPDAARGAGN,not soluble
4,SNAMTSLEEITKAIMADSQNKVFTEKNIEPLFAAPKTARINIVGQAPGIKAQESRLYWNDKSGDRLREWMGVDYDTFYHSGYFAVIPMDFYYPGKGKSGDLPPRKGFAQKWHQPILDLLPDIQLTILIGNYAQKYYLHQKSSVKLTDTVAHYKKYLPDYFPLVHPSPRNQIWMSRHPWFEAQVVPDLKKIIQQIIQSS,soluble
5,MGNEEEKMNADIFSYEGEGIQCVYDNKNWVMCIKNWKPNNDIENIRYLEVHHATDEQFVLLKGKAVLLAAVKADGACRIDVIPMEPYKVYNIPQGIWFNTITQKDTKLVYVQDAATTAENSEYCDMTQEELNEVKEKASACLD,not soluble
6,MYPIKIIYVYKAMLDKVIDKAGGVLTEAYGDVVKPVLKPIGEVLGFLPRSIKCLLQGWEKWIINGEESIRLTSEAIRKKIEATPAERLTEPEPYVVVPAIQQLGYSHSSEELRELYANLIVSSMDVEKKGLVHPAFVDILKKLTPDEAKIIQYFKGRDFIEYLDLRAYIKEEEGGGFRTIADHKTLLSDEVNFFMPDNELAYLQNLVCLGILKDCEGTFTVIEDNYKLIENKLGLESLRNQYVPEQFSSIRSEKSFYQVTDFGRNFINTVTE,not soluble
7,MVNKDVTKVCIGKIEELPEQLGKTVYIEDKELAVFKLSDGSIRAIENRCPHKGGVLAEGIVSGQYVFCPMHDWKISLEDGIVQEPDHGCVKTYETLIEGEHVYLVY,not soluble
8,GPGSVPPKKPTEVPKLVRINTNEKGITNVQLARAPVNSMSLELFQELNQWMLWLGCNEETKAVIISSAIPTVFSAGLEFSEVHNPKPDRIAVFWQSFQEMWRILDTFPKPIIAAITGNSPAAGCIIAMGCDYRVMARGPKGNTNNNRLYRIGLNETKLGLVPPPWTVSAYAYLLGSRQAEEMLQLGETPVADDARNLGLIDEVAADEERAIEVAYQQAERFLSVPQEARRVSRDMARCEYLRLLATEDDRNYDTEFFTQYMLRPEVQKNLESYLERLKSRSRK,not soluble
9,AIAQNDAGEFVDLYVPRKCSASNRIIGAKDHASIQMNVAEVSWEPGRREGCDICAGKAGCPIVEEPLG,soluble
10,MAHHHHHHMGTLEAQTQGPGSMDFRIGQGYDVHQLVPGRPLIIGGVTIPYERGLLGHSDADVLLHAITDALFGAAALGDIGRHFSDTDPRFKGADSRALLRECASRVAQAGFAIRNVDSTIIAQAPKLAPHIDAMRANIAADLDLPLDRVNVKAKTNEKLGYLGRGEGIEAQAAALVVREAAA,soluble
11,MILLPSIRLPETAMNTDSPINRVEQVQVDDLACWRIHTAHGEALIAQQGAQLLSYQPHEQPPLVWLSDEAGYRRGQSVRGGVPVCWPWFGPLERNPQEVRGQVEDGLKAPAHGLVRAVDWKIDDIAEEDGDLCVSFRLDAPDGLPGWPHPAALRMLFRFGERLTLRLTSENLGSKPLVLSQALHTYFAVSDSREIAIEGLEGARYIETLENWEERTQHGAVRVKGELDRIYLGLERDLLIKDPRWERSIHLHALDSRSAVVWNPWVDKSRRLSQFADDAWQQMLCIETGRVWDDLMVVAPGRSESFGVQIWSEPLKRP,soluble
12,MVEEMNNEVTEMKSFSVGDVVSGKVTKVEDKQAFVDVGFKVDGIIPISELSSLHVEKVSDVLSEGDELELKVLKVEDDELILSKRAVQAEKAWETLQAALDSGEVIEAEVADVVKGGLVVDLGVRGFIPASLVERHYVEDFSDYKGRTLRLKVVELDKEANKLILSQRAVLDEEVEAKKKEVLASLQPGDVVEGTVQRLTDFGAFVDVGGVDGLVHISQLAHHRVETPAEVVKEGDAVKVKVLSVDPDSERVSLSIKETLPGPWEQVEGTIQPGDVIEGTVKRLVSFGAFVEVAPGVEGLVHISQIANRHIGTPGEVLSEGERVQAKVLDVNISEKRISLSIRELLDDAGSNQSDREVYESTNEESSGFSLGDMIGDELKKYKLEHHHHHH,soluble
13,MAEEQARHVKNGLECIRALKAEPIGSLAIEEAMAAWSEISDNPGQERATCREEKAGSSGLSKPCLSAIGSTEGGAPRIRGQGPGESDDDAETLGIPPRNLQASSTGLQCHYVYDHSGEAVKGIQDADSIMVQSGLDGDSTLSGGDNESENSDVDIGEPDTEGYAITDRGSAPISMGFRASDVETAEGGEIHELLRLQSRGNNFPKLGKTLNVPPPPDPGRASTSGTPIKKGTDARLASFGTEIASSLTGGATQCARKSPSEPSGPGAPAGNVPECVSNAALIQEWTPESGTTISPRSQNNEEGGDHYDDELFSDVQDIKTALAKIHEDNQKIISKLESLLLLKGEVESIKKQINRQNISISTLEGHLSSIMIAIPGLGKDPNDPTADVEINPDLKPIIGRDSGRALAEVLKKPVASRQLQGMTNGRTSSRGQLLKEFQLKPIGKKMSSAVGFVPDTGPASRSVIRSIIKSSRLEEDRKRYLMTLLDDIKGANDLAKFHQMLVKIIMK,soluble
14,MVPELMFDEPRPGRPPRHLADLDAAGRASAVAELGLPAFRAKQLAHQYYGRLIADPRQMTDLPAAVRDRIAGAMFPNLLTASADITCDAGQTRKTLWRAVDGTMFESVLMRYPRRNTVCISSQAGCGMACPFCATGQGGLTRNLSTAEILEQVRAGAAALRDDFGDRLSNVVFMGMGGAAGQLRQGVGRSSAHYRAAAVRFRDFGPRGDGVDGGSGPCYPQPCRRAARRDPGAVAARPRRRVARYTSSGQQPVEDQRSARCGPVLRQCDRATGVY,soluble
15,MGSSHHHHHHHSSGLVPRGSHMMRKRARIIYNPTSGKEQFKRELPDALIKLEKAGYETSAYATEKIGDATLEAERAMHENYDVLIAAGGDGTLNEVVNGIAEKPNRPKLGVIPMGTVNDFGRALHIPNDIMGALDVIIEGHSTKVDIGKMNNRYFINLAAGGQLTQVSYETPSKLKSIVGPFAYYIKGFEMLPQMKAVDLRIEYDGNVFQGEALLFFLGLTNSMAGFEKLVPDAKLDDGYFTLIIVEKSNLAELGHIMTLASRGEHTKHPKVIYEKAKAINISSFTDLQLNVDGEYGGKLPANFLNLERHIDVFAPNDIVNEELINNDHVDDNLIEE,soluble
16,MKLIVKVFPEITIKSPPVRKKFIRQLGKNIRTVLRELDADIVVGGVWDNLEVETRLTDPKVLQGIRDRLSCMPGIANFLQVAEYPLGDMDDVVAKCKLHYADLLPGTMFSVRCKRAGRHDFSSMDVEKYVGSQLRMQCGAAGIELKKPDLVVRMEIRDQRLFVVHDQHKGMGGYPLGALEQTLVLMSGGFDSTVAAYQIMRRGLMAHFCFFNLGGRAHELGVMEVAHFIWKKYGSSQRVLFVSVPFEEVLGEILQKVDNSHMGVVLKRMMLRAASAVADRLEIDVLVTGEAISQVASQTLPNLSLIDAATDKLVLRPLVATHKQDIVDLATEIGTADFARHMPEYCGVISVNPKTNAKRNRVEYEEQQFDMAILEQALERAKLVSIDRVIDDLSRNIDIEEVSQALAGQVIIDIRHPDAQEDQPLQVPGVEIQTLPFYALNSRFKALDDTRQYLLYCDKGVMSRLHAHHLLSEGHANVRVYRPS,not soluble
17,MTAEILVVGSILPSDKFFCFLMGPAPVFPNSRKPATLDANSDEQTLRPYFKTKVEQAEQTVAEKSINVRRLMAQQKELNGKVRLLKEEISHLHEQGSHVGEVCKAMDKKKVLVKNHPDGKYIVDVAASVDISTLAAGTRVALRADNYAIHEVLPSKVDPLVSLMMVEKVPDSTYEMVGGLDTQIKEIKEVIELPVKHPELFDALGIAQPKGVLLYGPPGTGKTLLARAVAHHTECTFIRVSGSELVQKFIGEGARMVRELFVMAREHAPSIIFMDEIDSIGSSRVEGSRGGDSEVQRTMLELLNQLDGFEATKNIKVIMATNRIDILDSALLRPGRIDRKIEFPAPDEKARAQILKIHSRKMNLMRGIRMDKIAEQIPGASGAEVKSVCTEAGMFALRERRIHVTQEDFEMAVGKVMQKDSEKNMSIKKLWK,not soluble
18,MSEIKTDDPKRGIKLRGADKTARIPIKVVPLQEKLKKPEWIRAKLPSRKFFEIKDILREQKMHTVCEEASCPNIGECFSKGTATFMIMGDICTRRCPFCDVGHGRPNMLDPDEPRNLAESVKAMNLRYVVITSVDRDDLRDGGAQHFADCIKAIRETSPNTKIEILVPDFRGRLDIALKILAETPPDVMNHNLETHPSLYRKARPGANYQHSLDLLKRYKEMMPHIPTKSGIMVGLGETDEDVREIMRDMRAHNIEMITIGQYLQPSDGHLPVLRYVTPEQFKIFEKEAYELGFSNAAIGAMVRSSYHADEQAAEALRESHGGCGHH,not soluble
19,GSHMLEDPLRVSPMIREFVQSIDDREWQTQLFALLQKQTYNQVEVDLFELMCKVLDQNLFSQVDWARNTVFFKDLKVDDQMKLLQHSWSDMLVLDHLHHRIHNGLPDETQLNNGQVFNLMSLGLLGVPQLGDYFNELQNKLQDLKFDMGDYVCMKFLILLNPSVRGIVNRKTVSEGHDNVQAALLDYTLTCYPSVNDKFRGLVNILPEIHAMAVRGEDHLYTKHCAGSAPTQTLLMEMLHAKR,soluble
20,SGRKIGSIVMNANPFTLGHQYLIEQACEQCDWVHLFVVKAENKDFSYADRMAMIKAGSKHLLNLTIHSGSDYIISRATFPSYFIKDQQVVNQSHTALDLSIFRHSIAPALGITHRFVGSEPICTVTRHYNQAMRRWLEEAHDASAPIQVVEIERSQQASQPISASRVRYLLKQFGFAAIADLVPKTTYSYLCQHYAEH,not soluble
21,MGVVNVPSNGREKFKKNWKFCVGTGRLGLALQKEYLDHLKLVQEKIGFRYIRGHGLLSDDVGIYREVEIDGEMKPFYNFTYIDRIVDSYLALNIRPFIEFGFMPKALASGDQTVFYWKGNVTPPKDYNKWRDLIVAVVSHFIERYGIEEVRTWLFEVWNEPNLVNFWKDANKQEYFKLYEVTARAVKSVDPHLQVGGPAICGGSDEWITDFLHFCAERRVPVDFVSRHAYTSKAPHKKTFEYYYQELEPPEDMLEQFKTVRALIRQSPFPHLPLHITEYNTSYSPINPVHDTALNAAYIARILSEGGDYVDSFSYWTFSDVFEEMDVPKALFHGGFGLVALHSIPKPTFHAFTFFNALGDELLYRDGEMIVTRRKDGSIAAVLWNLVMEKGEGLTKEVQLVIPVSESAVFIKRQIVNEQYGNAWRVWKQMGRPRFPSRQAVETLRQVAQPHVMTEQRRATDGVIHLSIVLSKNEVTLIEIEQVRDETSTYVGLDDGEITSYSS,soluble

# — the DeepSol protein solubility set
